Measured values: the nanobody polyreactivity screen of Harvey et al. (2022)

Experiment: yeast display, Sf9 membrane polyspecificity reagent, FACS + sequencing; frameworks hold sequencing errors
Method in brief: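 Nanobodies came from a synthetic yeast display library in Saccharomyces cerevisiae BJ5465, induced with galactose for 36–48 hours and stained for 1 hour at 4 °C with 10% biotinylated, detergent-solubilized Sf9 membrane reagent. Cells were enriched on streptavidin microbeads and then FACS-sorted, with low and high (top ~1%) gates set on anti-HA fluorescence for expression and streptavidin fluorescence for reagent binding. Each polyreactivity label reflects the gate a clone came from. Genes were amplified by colony PCR, sequenced by MiSeq 2 × 250 and filtered by CDR length.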

Sequence	polyreactivity (PSR sort gate)
QVQLVESGGGLVQAGGSLRLSCAASGSTFLPYVMGWYRQATGKERELVAAISRSGGRTYYADSVKGRFTISRDKAKNTVYLQMNRLKPEDTAVYYCNAVQRFYADYQPFAYWGQGTQLTVSS	high polyreactivity
QVQLVESGGGLVQAGGSLRLSCAASGSTFLRNAMGWYREAPGKERELVAAISTRGGSTYYADSVKGRFTISRDNAKNTVNLQMNSLKPEDTADYYCAAVATRRYDYWGQGTQVTVSS	high polyreactivity
QVQLVESGGGLVQAGGSLRLSCAASGSTFLRNAMGWYRQAPGKERELVATISRTGGTTYYADSVKGRFTISRDNAKTTVYLQMNSLKPEDTAVYYCAAYSKYGQHYDYWGQGTQVTVSS	high polyreactivity
QVQLVESGGGLVQAGGSLRLSCAASGSTFLRNAMGWYRQAPGKQGSWVATISYDGDSTYYADSVTGRFTISRDNAKNTVYLQMNSLKPDDPAVYYCAASYSQTFWDKDDYWGQGTQVTVSS	low polyreactivity
QVQLVESGGGLVQAGGSLRLSCAASGSTFLRNVMGWYRQAPGKESELVAAISSRGGSTHYADSVKGRFTISRDNAKNSVYLQMNILKPEDTAVYYCNAERSAAQYVRAAYDYWGQGTQVTVSS	low polyreactivity
QVQLVESGGGLVQAGGSLRLSCAASGSTFLRYAMGWYRQAPGKERELVAAINLSGDRTYYADSVKGRFTISRDNAKNTDYVQMNSLKPEDTAVYYCAARWWGPSYDAYDYWVQGTQVTVSS	low polyreactivity
QVQLVESGGGLVQAGGSLRLSCAASGSTFLRYAMGWYRQAPGKERELVAAITASGGSTYYADSVKGRFTISRDNAKNTVYLEMNSLKPEDTAVYYCAADGRYIGKNSHDLWIYGYYYWGQGTQVTVSS	low polyreactivity
QVQLVESGGGLVQAGGSLRLSCAASGSTFLSYAKGWYRQATGKEREVVAAISGRGGSTYYADSVKGRFTISRDNAKNTVYLKMNSLKPEDTAVYYCARVYRPSADTYNYWGQGTQVTVSS	high polyreactivity
QVQLVESGGGLVQAGGSLRLSCAASGSTFLSYAMGWYRQAPGKERELVATINRGGSTYYADSVKGRFTISRDNAKNTVYLQMNSLKPEDTAVYYCAKANKRGRYNYWGQGTQVTVSS	high polyreactivity
QVQLVESGGGLVQAGGSLRLSCAASGSTFLTNAMGWYRQAPGKERELVAAIRWRGGDTRYADSVKGRFTISRDNAKNTVYLQMNSLKPEDTAVYYCAAQYRKTQYQKKYDYWGQGTQVTVSS	high polyreactivity
QVQLVESGGGLVQAGGSLRLSCAASGSTFLTNTMGWYRQAPGKERELVAIISRSSGTTYYSDSVKGRFTISRDNAKNTVYLQMNSLKPEDTAVYYCAKRYRRASPYSKNVYWGQGTQVTVSS	high polyreactivity
QVQLVESGGGLVQAGGSLRLSCAASGSTFLTYDMGWYRQAPGKERELVAAISGGGSTNYADSVKGRFTISRDNAKNTFYLQMNSLKPVDTAVYYCAAKASGNFYYYWGQGTQVTVSS	high polyreactivity
QVQLVESGGGLVQAGGSLRLSCAASGSTFLVYAMGWYRQAPGKERELVAVITRGVRTFYADSVKGRFTFSRDNAKNTVYLQMNSLKPEDTAVYYCAKERYNANYDTSLYDYWGQGTQVTVSS	low polyreactivity
QVQLVESGGGLVQAGGSLRLSCAASGSTFLYYSMGWYRQAPGKETELVAAIDSGGSTYYADSVKWRFTISRDNAKNTVYLQMNSLKPEDTAVYYCNPDFADHWPPNGPGAHDYWGQGTQVTVSS	low polyreactivity
QVQLVESGGGLVQAGGSLRLSCAASGSTFNAYAMGWNRQAPGKERELVAVISSSGGRTYYADSVKGRFTISRDNAKNTVYLQMNSLKPEDTAVYYCNADVKYRYNHWGQGTQVTVSS	high polyreactivity
QVQLVESGGGLVQAGGSLRLSCAASGSTFNDYAMGWYRQAPGKERELVAGITWRGTSTYYADSVKGRFTISRDNAKNTVYLQMNSLKPEDTAVYYCAADVYYLLWLWMDYWGQGTQVTVSS	low polyreactivity
